Laboratory results reported in publication PMC4442619.

Assays:
[1] = molecular target: C-terminal region of RING1B (C-RING1B), residues 222–336, with C-terminal hexahistidine tag (human) (UniProt Q99496); assay: SPR
[2] = molecular target: RING1B C-terminal domain (C-RING1B) (Homo sapiens) (UniProt Q99496); details: cited from earlier work
[3] = molecular target: C-terminal region of RING1B (C-RING1B), residues 222–336, with C-terminal hexahistidine tag (human) (UniProt Q99496); assay: native gel or EMSA
[4] = molecular target: cbx7 cbox domain with C-terminal hexahistidine tag (human); assay: AUC

| Molecule | Kd [1] | also measured |
| --- | --- | --- |
| MBP–Drosophila Pc cbox domain fusion protein (from UniProt P26017 1-390) (domain or fragment) | 38 nM | – |
| MBP–cbx6 cbox domain fusion protein (from UniProt O95503 1-412) (domain or fragment) | 180 nM | – |
| MBP–cbx7 cbox domain fusion protein (from UniProt O95931 1-251) (domain or fragment) | 9.2 nM | – |
| MBP–cbx8 cbox domain fusion protein (from UniProt Q9HC52 1-389) (domain or fragment) | 180 nM | – |
| RING1B C-terminal domain (C-RING1B) (from UniProt Q99496) | – | Kd [2]: 200000 nM |
| cbx6 cbox domain (domain or fragment) | – | stoichiometry N [3]: 1 |
| C-RING1B (residues 222–336) with C-terminal SRD sequence, coexpressed with the cbx7 cbox domain (domain or fragment) MEKTRGASEIELVFRPHPTLMEKDDSAQTRYIKTSGNATVDHLSKYLAVRLALEELRSKGESNQMNLDTASEKQYTIYIATASGQFTVLNGSFSLELVSEKYWKVNKPMELYYAPTKEHKSRD | – | stoichiometry N [4]: 1 |
